Results on 21 sequences are retold here after the DeepSol protein solubility set.

A short description of the data set: soluble on expression in E. coli; label from the status in PepcDB or PDB records.
Take “MHHHHHHSSGVDLGTENLYFQSNAMNFKLNNTLSNEINTLIIGIPEHLNQLERISFNHIDITESLERLKHQHIIGSKVGKIYTTAFDVQDQTYRLITVGLGNLKTRSYQDMLKIWGHLFQYIKSEHIEDTYLLMDSFISKYDQLSDVLMACGIQSERATYEFDHYKSSKKAPFKTNLNLISESLIELDFIHEGISIGQSINLARDFSNMPPNVLTPQTFAEDIVNHFKNTKVKVDVKDYDTLVSEGFGLLQAVGKGSKHKPRLVTITYNGKDKDEAPIALVGKGITYDSGGYSIKTKNGMATMKFDMCGAANVVGIIEAASRLQLPVNIVGVLACAENMINEASMKPDDVFTALSGETVEVMNTDAEGRLVLADAVFYANQYQPSVIMDFATLTGAAIVALGDDKAAAFESNSKVILNDILQISSEVDEMVFELPITATERASIKHSDIADLVNHTNGQGKALFAASFVTHFSGQTPHIHFDIAGPATTNKASYNGPKGPTGFMIPTIVQWLKQQ”: the “soluble on expression in E. coli” value is on record as “soluble”.

Consider “MRLIVVSGQSGAGKSVALRVLEDLGYYCVDNLPVSLLTAFIQSVQGSQQNVAVSIDIRNLPKEPSLVQDVLDQLKQNNDVSMLFLDASKETLLKRYSETRRIHPLSLSQSKPSLAQAIELEKQLLGPLKEQADLLLDSSNQSLHELSETVRMRIEGRERKDLVMVFQSFGFKYGLPTDADYVFDVRFLPNPHWEPDLRPLTGLDAPIKSFLEGHSEVMELKQQIQKFFEYWLPMLEKNNRSYLTIAIGCTGGKHRSVYLTQQLGEYFAQLGHQVQLRHTSLEKQ”, for which the “soluble on expression in E. coli” value is “soluble”.

Consider “MGSDKIHHHHHHMVEVVGVRFREAGHIYYFAPGKSEYIYNEKVLVESQQSKQLATVAIPKKTVDSDDLPEDLKPILNKATANDLEKEQKNLADAEAAKSIANEKIRAHDLKMKLVRVEYTFDRSKMIFYFTADGRIDFRELVKDLAAIFRTRIELRQIGVRDEAKILGGIGPCGRQLCCSTFLGDFMPVSIKMAKDQGLSLNPVKISGLCGRLMCCLKYENDEYEAAKKELPDYGKEVITPDGKGKVVGLNLLSRIVKVRLHGREIAADYDYEEIKEATAKVAAEKGDQNG”, for which the “soluble on expression in E. coli” value is reported as “not soluble”.

“MKFWKKGLTAAALLAVAAVTLTACGGSSEKKATEKSEDGKTKLTVTTWNYDTTPEFEKLFRAFEAENPDITIEPVDIASDDYDTKVTTMLSSGDTTDILTMKNLLSYSNYALRNQLVDLTDHVKDLDIEPAKASYEMYEIDGKTYAQPYRTDFWVLYYNKKMFDEAGIAYPDNLTWDEYEALAKKLSKPEEQVYGAYQHTWRSTVQAIAAAQNNANLIEPKYNYMETYYDRALRMQKDQSQMDFGTAKSTKVTYQSQFENSKAAMMYMGSWYMGTLLTNIDDGKTNVEWGIAEIPQQEKGKATTFGSPTSFAINKNSKKQKAAQKFLDFASGKEGAKLLAEVGVVPSYKTDEIDKIYFARKGMPSDEVSQKAFNPDTINLEFPSDKNGAAIDKVLQEEHDLIMVGDEKPKDGIANMEKRVKAEID”: the “soluble on expression in E. coli” value is “not soluble”.

For “MAHHHHHHMKKNFPQSYNFFPLTWILPNEISDFKNYFKKESGSKTYIVKLKNSCQGKGIYLTKTLDNINKYDSCVIQKYIHKPLLINGLKFDIRLYVLVTGCDPLRIFLHEDGLVRFSIEKYKLPKSKNLKQVNMHLTNFSINKKSDKFENSPNPDDATMGHKRSWKAFLQKLKEEGLPMDSVMKRIEHMIVKTICSIQPELKHYYNSAHISDYSNSMCFEVLGFDILLDYKLKPWLLEVNHSPSFATSSLVDEKVKYAVIRDTLNMLYMHSKYRHIHIQEYLNLQKFRKKYSDVL”, the “soluble on expression in E. coli” value is on record as “not soluble”.

For the sequence “MKKIMILVAVISFFSFSDDIKIDRAVKESITKDFDQDGKYSAYEKALRKAQESIYVTLPEHRGYWYSTLDKIKAEEEELLPDETARMRRR”, the “soluble on expression in E. coli” value was “not soluble”.

“MLFMVKFRWETEFKETDIGKIPKDWDVKKIKDIGEVAGGSTPSTKIKEYWGGDIPWITPKDLANYEYIYISRGERNITEKAVKECSLRIFPKGTILLTSRAPIGYVAIAKNPLTTNQGFRNIIPKDGVVSEYLYYLFKTKTMSEYLKDISGGSTFPELKGSTLKEVEIPYPSPEEQQKIATVLSYFDDLIENKKKQNEILEKIALELFKNWFIDFEPFKNEEFVYNDELDKEIPKGWEVKRLGDILKVESGSNAPQREIYFENAKIPFVRVKHLVKGVCIESSDFINELALKDYKMKLYNEKSIIFQKSGESLKEARVNIVPFKFTAVNHLAVIDSSMLNEKHYFIYCLLRFLLKEIVYSVKGTTLPYLKISDIENKYIIIPPQPILQKFHSLVQPLFEKIINNQKQIMVLKKIRDALLPKLVFGELRVEEL”: the “soluble on expression in E. coli” value is recorded as “soluble”.

In the case of “MNLSFKINSMYICVHNMDRAINFYENLFNCKVTGKDEIYSVFDINGFRYGLFANKKTGEKKIWGNNCLPSFQVNDIDLILEKLKELNCPIVFPLTNIGKNKVLEFTDCEGNAIEITSPIKLEHHHHHH”, the “soluble on expression in E. coli” value is listed as “not soluble”.

With “MSLKIEPKIFDELKTALVSFGDKYFVGEELNRSKLADDLRNYDEALLSKLFEVDFIMQHFVKEVAGQKLFQIEQLEEAVLYNDYWDTSYTKYENRVGLASKGKFLQDSQDVVLDFPFKDCVLTASMTKENNEEGYDDAFLNEVIEKDEIDRLFDKKVFVNVKRFGDNQGAQHSTAVDNEIVSFDKEKDNLIIKGNNLLALHALKNEFAGKVRQIYIDPPYNTGKDSFNYNDKFNHSSWLVFMKNRLEIAWELLSDDGTIWISIDGYESHYLKVLADGIFGAENFLDEVVWQRAYAPINLKKTFSKSHDYILVYAKNNSGAKELNRLPRKAEMVASYKNPDNDPRGVYKADNFSVGPAVEKNIYEITTPSGRKVLPPDGYSWRFSKERFEELLADNRVYFGKDGNSAPSYKRFLSEVKDGVVAQTLWTYQEVGHNQDAKKEIKSLFDGQTAFGTPKPEKLIQRILTLGSDENDLVLDFFMGSATTQAVAMKMNRRFIGIEQMDYISTVSVPRLQKVIEGEQGGISKDVNWQGGGSFVYAELFPKNMGYLQDVIHAKDLEELKSVYERMLSGTDTDEPADISFRADLSKIDWLQGFDENKRLLVKLLDKNGLYYNYSEIDDKNVRDLISDEDYTFNKNFYEGGEGHHHHHH”, the “soluble on expression in E. coli” value is on record as “soluble”.

Consider “MGSDKIHHHHHHMIRGLYIAVSAMITNQQKQNVVVNNLANMDTNGYKSKQLLTKSFDELKLEGYNNYANGTKQKQIIGDISPGISMDETITNFNQGPIKTTDNKMDVAIQGKGFFLVSDAAGNQFYTRNGNFRTDNQGDLITSEGYYVLGTNTATGAVGHINVGNQKFEVAKDNTISLDGNAMYKFNIVDFNNYNNLKKEGDNLYSGGGAMKVNNALTIQSAIESSNVDMVSEINNMMTISREYEANQKIIQAMDSKLAKIASEIGSVR”, for which the “soluble on expression in E. coli” value is “not soluble”.

Turning to “MGSDKIHHHHHHLANLGFDFSPDFRPLAARMRPRVLSEYIGQSHLLGEGKALRVALEANRAHSMLLWGPPGTGKTTLAELIAHYANAHVERISAVSSGVKDIRAAIEQAKAVAQSRGQRTLLFVDEVHRFNKSQQDAFLPYIEDGTVIFVGATTENPSFELNNALLSRARVYLIHKLTETEITEIIIQALEDTERGLGKRQLIIPPEVMAELTHVSDGDARKALNLIELMSDLVADGDAVNLEMLSQVVGHKAAGYDKNGDQFYDLISAVHKSIRGSAPDAALYWFCRILEGGGDPLYVARRLLAIASEDIGNADPVAMTVALNAWDCFHRVGPAEGERAIAQAVLYLASAPKSNAVYTAFSAARELAHATGHEAVPNHLRNAPTKLMKTLAVGEGYRYAHDEPNAYAAGECYLPPSLEGQQFYQPTERGFEKRIKEKLAQLNQLDGHSRVKRYD”, the “soluble on expression in E. coli” value was “not soluble”.

Take “SAAVALRDSAQGTVTFEDVAVNFSQEEWSLLSEAQRCLYHDVMLENLTLISSLGCWYGAKDETPSKQTLSIQQESPLRTHWTGVCTKKVHLWGMCGPLLGDILHQGTQHNQKLNGFGAYEKKLDDDANHHQDQKQHIGEKSYRSNAKENE”: the “soluble on expression in E. coli” value is reported as “soluble”.

Take “MRPIPEGYEAVFETVVTPEMTVRFEELGPVHPVYATYWMVKHMELAGRKIILPFLEEGEEGIGSYVEARHLASALPGMRVRVVARHEKTEGNRVYARVEAYNELGDLIGVGRTEQVILPKAKVEALFRRLKERWEAERSPS”: the “soluble on expression in E. coli” value is “soluble”.

As to “MAHHHHHHMSRYVKYFVQAKRLDKRKRKFGQMDFLELSKELSIPFPLRERNQPKHLDLSKYLNIKVGDLVKVLYGPYKDKEGIVLNINTKRNTVIVDGCNMKKSAWNVTKKNAGSIITQEMPIHITNVAILDPISKKATVVKRRYMMHGECVRISKISGCAMPEPVSVQALKEQNNYELFIHKKKTGPPIKDIYAERDSKNFNLLKKIAYEIKRRRFYEMKNFFRDASPGKGSASPGGGSASLGEGSSSLEG”, the “soluble on expression in E. coli” value was “not soluble”.

On to “MEKLTIQEEEVMLHIWSMGECFVKDIVAKFPEPKPPYTTVASIVNNLKRKGYVTAKRFGNTYQYTPVVKQSEYKRTFVSGVVRNYFADSYKEMVSFFAKEQKISAADLKDIINLIEKEEDK”, for which the “soluble on expression in E. coli” value is reported as “not soluble”.

Take “MGSDKIHHHHHHLAAEIIAVTQQKGGVGKSTIAMHLGAAFHEKGKRVLVVDADGQNTLIHWASASSDGDTGIPFPVVNLSEAGSQIHREIKKFVADYDIIVVDCPPSITEKVSGVVLLAASVAVIPTSSSPADYWSSIGLVKLVQQAQLMNEDLRAVFLLNKTEEKRMLTRELKRALEELGFPLLKTQIPTREAYKQAMALGQTVLQMNDRGAKLAAIEVRACANEIAALLP”: the “soluble on expression in E. coli” value is listed as “not soluble”.

Consider “GIVNVPNPNNTKFQELARFAIQDYNKKQNAHLEFVENLNVKEQVVAGIMYYITLAATDDAGKKKIYKAKIWVKEWEDFKKVVEFKLV”, for which the “soluble on expression in E. coli” value was “soluble”.

“MWQPATERLQVTYLGKVSTTGMQFLSGCTEKPVIELWKKHTLAREDVFPANALLEIRPFQVWLHHLDHKGEATVHMDTFQVARIAYCTADHNVSPNIFAWVYREINDDLSYQMDCHAVECESKLEAKKLAHAMMEAFRKTFHSMKSDGRIHSNSSSEEVSQELESDDG”: the “soluble on expression in E. coli” value was “soluble”.

With “MTYLLLDYFDEKFPDEKAVKEMKPFRRHRWFFKEGTTNYSHSERNKLPEGAAYAGHRTPLISGECKVYGCWPNGYDNVGEEEWAKIPTDARQKFKAALNDTAEIVVSGIECRRSFQYIDDKLLSAMDNYSELEKLPVAYSFSATKFYPSLIPFLETRWTATKLDWKNHGQNNLDLSRTHLREITLDGEGLKSVSLPESCRTISFSSTLSPELKVYSPDGGSNLTLKIELEADHVPDVGLPQLEILVLDRAVKLDLLPVTNLYPNLYYLRICGKPGYLSNISSLRNLKTLEVLSLEEIFGFTAEEFPTPGTCPLLNTLWMESIPEEAGKQIKKKYKGKITELDIRKLRKPEWLAENLDNPLRHWDGSEFVPPAKFKKAVVIYRNARRDALVAANQYLIDRDAALLQNRLEQTGKEFVIAFNKLDGKSGFIETEEREDLCAAFQVILDAVDSSVNFLGFTMNHDRIWEIMNEHRDW”, the “soluble on expression in E. coli” value is recorded as “not soluble”.

As to “MGDWIIKLEDVSAGYGKLQTLFDVSLEIPRGLITVIVGPNGAGKSTLLKTMFGFTTVYKGRVLFENTDVTHMPPHDRAKIGMTFIFQLENIFRELTVYENLRLAGYDLPEDVFRDRLEEVFSMFPRLKERLGQKAGTLSGGERQMLAMAIGIMRKPKVFLIDEPTAGLSPKLAKEVLSYVRILNKEGYTVVLVEQNVKASLEIGDKGVLVVNGRIAFDGPAEELLARKDLAKMYLGV”, the “soluble on expression in E. coli” value is “soluble”.

For the sequence “HTHWGYTGHDSPESWGNLSEEFRLCSTGKNQSPVNITETVSGKLPAIKVNYKPSMVDVENNGHTIQVNYPEGGNTLTVNGRTYTLKQFHFHVPSENQIKGRTFPMEAHFVHLDENKQPLVLAVLYEAGKTNGRLSSIWNVMPMTAGKVKLNQPFDASTLLPKRLKYYRFAGSLTTPPCTEGVSWLVLKTYDHIDQAQAEKFTRAVGSENNRPVQPLNARVVIE”, the “soluble on expression in E. coli” value is on record as “soluble”.
